These results are taken from US20100243450.

As usually defined, the Kd is the constant that tells how readily two partners part at equilibrium. Low values mean a tighter complex, high ones a looser complex.

This data set has as its target Mef2c (UniProt Q06413). Conditions: NECEEM; 25 mM tetraborate pH 9.4, room temperature; koff 0.022 s-1, kon 45 M-1 s-1.

Sequence of Mef2c (Q06413 whole entry): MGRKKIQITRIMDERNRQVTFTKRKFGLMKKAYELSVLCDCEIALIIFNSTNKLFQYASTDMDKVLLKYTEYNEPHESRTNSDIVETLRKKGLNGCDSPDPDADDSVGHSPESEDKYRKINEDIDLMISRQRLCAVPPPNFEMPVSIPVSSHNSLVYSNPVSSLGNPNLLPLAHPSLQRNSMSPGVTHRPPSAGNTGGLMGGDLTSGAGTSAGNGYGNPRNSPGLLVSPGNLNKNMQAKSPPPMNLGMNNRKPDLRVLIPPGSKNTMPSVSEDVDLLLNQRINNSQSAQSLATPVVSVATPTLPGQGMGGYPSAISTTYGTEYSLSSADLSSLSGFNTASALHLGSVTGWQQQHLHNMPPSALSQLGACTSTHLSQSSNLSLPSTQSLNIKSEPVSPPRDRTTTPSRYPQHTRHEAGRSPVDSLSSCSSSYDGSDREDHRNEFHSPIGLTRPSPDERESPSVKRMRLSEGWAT

Consider “CCTGCCACGCTCCGCTCTAAAAATAA (double strand) [Mef2c target dsDNA 26 bp]”, for which the Kd was determined as 480 µM.
